Measured values published in the supplement of paper PMC12042874.
± gives the uncertainty stated by the source.

Assay: amyloid nucleation score (Sup35N fusion, yeast selection) (log enrichment); library NNK2; higher = more nucleation; inactive = no reads after selection
Procedure, shortened: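 Yeast lacking psi expressed peptides of 20 random codons fused to Sup35N, received 100 μM copper sulfate for 24 hours, and were then grown for 7 days at 30°C on medium lacking adenine and uracil. Illumina sequencing of input and output plasmid inserts provided the reads. Nucleation scores are DiMSum log enrichments of output over input, centred on the mode of non-aggregating sequences. Any sequence with under 100 input reads was excluded.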

Substance	amyloid nucleation score
NRNHMCRSCYMGWFRGRAKA	-1.04 ± 0.42
NRSHCIVVQLLRCFGYVPYG	inactive
NRSREELYARNKQYFSFI	-0.986 ± 0.76
NRSTDAYFIILHICYTNGVY	-0.429 ± 0.61
NRVFVVND	1.4 ± 0.2
NRYYYISSQGDDMQAGCFHY	-0.963 ± 1.1
NSASLFFS	0.27 ± 0.17
NSIESNSCKWVRNVCTANSG	-0.587 ± 0.76
NSLRCSLIWMGQLPLSGTHV	inactive
NSMNVGSFRSSEWLVLFENV	-0.453 ± 1.1
NSNGTFGQCLVM	-0.293 ± 0.5
NSPNCDHASRKLIHR	0.07 ± 0.61
NSRIL	inactive
NSRISKNNLSRSLT	-0.196 ± 0.56
NSRLMMCEIPERCM	0.512 ± 0.28
NSRNSSYKWFSSSFVHVADF	1.71 ± 0.088
NSSPTSFLLIMSLNCCICVN	8.228 ± 0.024
NSSVW	-1.01 ± 0.48
NSVMIDTDVKFAFFRSET	inactive
NSVSCANYTLHPIAMDWNGP	inactive
NSYIRHSFLQTRFISTNV	-0.306 ± 0.36
NTGVIYDAT	-0.307 ± 0.63

Substance	amyloid nucleation score
NTIMFEFICSIGITVYD	1.33 ± 0.21
NTLSR	5.654 ± 0.05
NTMMGV	-0.724 ± 0.64
NTMTSHMFENNRSIVTYLDV	-0.718 ± 0.76
NTNASDWRGAMLLSCMRFYS	-0.257 ± 0.42
NTNRVVWVVLAMKI	0.086 ± 0.77
NTTMWGHVYMHLANMYTEFC	inactive
NTVKKLHLLQHHRVYVCATT	-0.965 ± 0.78
NTVWSFSSEWLFKQQLVCVR	0.091 ± 0.53
NVGSVKHGS	0.531 ± 0.57
NVGTEFVWIPYFYSAS	0.716 ± 0.66
NVIRHLPPSYWRSLHSQMFP	inactive
NVLCKRVMMV	0.384 ± 0.66
NVRDSYVNNCMTKGPRLNGV	-0.686 ± 0.34
NVWILNNYGQCIKS	5.254 ± 0.023
NVYSAYNLACFALLYCLLIW	0.691 ± 0.8
NWIDVLFKCKC	-0.156 ± 0.62
NWIQRQVL	inactive
NWLIMYNFAR	inactive
NWPETT	2.48 ± 0.19
NWSVILYIRACTASNIEWLS	1.52 ± 0.44
NWTLYFDNRGRVLNTYSTRY	7.718 ± 0.031

Substance	amyloid nucleation score
NWVPLLFDY	inactive
NYAQATRMFFNLMKSWLKMR	-1.02 ± 1.1
NYCRVDLHSYKCYVVCSMFM	4.76 ± 0.11
NYCYLFLTYCWVQRMSEGFS	2.88 ± 0.098
NYFVNSI	inactive
NYGGPMVNDAFVCTLAGPV	inactive
NYGSSRLAPVHNT	3.17 ± 0.12
NYGSTLVDWRVRFTRTRTWS	0.503 ± 0.3
NYILRQAGEMFGLLGDFGDG	-0.165 ± 0.45
NYIVVARFYSRVVFFRV	inactive
NYKYINVHGGYVSCLKREEE	inactive
NYLDLFTRVWKS	inactive
NYLQCWVFGRESMSLYKIWL	-0.081 ± 1.1
NYLRYLLMDSHMRLMDRWKQ	4.87 ± 0.069
NYLYHLPYLRTSVLRRLRPV	0.426 ± 0.3
NYRRGEKNGVDVNLASKQCT	0.86 ± 0.46
NYSIFDWTCSSKMSIITCAK	5.697 ± 0.029
NYTWGEIYGH	-1.2 ± 0.79
NYVYSTCYALDQCQFKYNVQ	0.655 ± 0.26
NYYINDADGRLLARWLYKLF	-0.865 ± 0.25
NYYYIVLLYRSLLLMS	-0.265 ± 0.41
PACYKDYGSKSPHPPTVGLG	-0.159 ± 0.76

Substance	amyloid nucleation score
PAFQCMVQMKPGLWVV	-0.456 ± 0.78
PAFVYHFYQYNLTICYGYLG	-0.313 ± 0.5
PCIGSQFFYSFGGLIK	-0.736 ± 0.35
PCSLLKNWYIEAYTALQNIG	0.383 ± 0.74
PCSWPNPHLRIGFRLKSPPP	4.34 ± 0.076
PCTVHASNRTLGHRVKSCSV	-0.515 ± 1.1
PCWLNGWERFHIWRFNGSVR	-0.281 ± 0.37
PDGSASIGGYYGQFLL	-0.746 ± 0.62
PDIYLYFLKKVMRS	-1.57 ± 1.1
PDPLWGRPFYIWIMELGSRK	2.32 ± 0.13
PDWLCEVKRIYELIGYMALI	0.41 ± 0.41
PESGGNAIFAHERMQLGRRS	0.92 ± 0.57
PFCPFSEAVWMSTITLQHEG	-0.054 ± 0.32
PFSYFRWWPYRILAWSTWLV	4.89 ± 0.061
PFVTK	0.259 ± 0.29
PFVVNVAGLKMSVRV	3.71 ± 0.07
PGSTRAFIMAVWGAPTEWER	2.86 ± 0.16
PHKSAGGRLSMFGAKHGDMV	0.822 ± 0.49
PIFLFQRYPLLGLWLKKACD	inactive
